The text below walks through data of patent US6379959B1, “Metalocarboxypeptidase inhibitors and derived molecules used as antitumor agents” (Universitat Autonoma de Barcelona, priority 1996, dated 2002).

“And” between values parts separate entries of the source, which are not always exact repeats. Equal values may be shown once. Positions of bridges follow the written chain, without caps; N, C: chain ends. No end group written: not given here.

For one series, the system named is β2-microglobuline. Description: Gene expression analysis by Northern transfer, β2-microglobuline probe. Format: cell-based, human. The conditions noted are these: 12 days, Capan-1 (control 955). The method, then: To verify whether the PCI plays any role in signal transduction, studies of gene expression were carried out by Northern transfer. The probes were: β2-microglobulin, p53 and trypsin. The β2-microglobulin is a constitutive gene that is used as a sample loading control in the gel. p53 is a transcription factor which, among other functions, controls the state of the genomic DNA and the cell cycle (Bates, S. & Vousden, K. H. (1996) Curr. Opin. Genet. Develop., 6: 12-19). If the DNA is damaged, p53 induces its repair and, if it is excessively damaged, it provokes programmed cellular death (apoptosis). Trypsin is a marker of pancreatic cells of the acinar type. The trypsin is not expressed by all the tumoral cells and it is believed that it is expressed by the cells with metastatic power and/or invasive power (Fernández, E. et al., (1994) Cancer, 73: 2285-2295). The probes employed are described as follows:
In the first place, 3×10^6 cells of the human pancreatic adenocarcinoma cell line Capan-1 were placed in each one of the 12 flasks of 150 cm^2. […] They were maintained in culture for 12 days period, changing their medium every 4 days, adding fresh PCI. […]
The quantifying of the hybridized filters with the respective probes was done using a Betascope 601 blot Analyzer counter (Betagen, USA). […]

For series [1], the system named is Int-2 murine insulinoma cell line. The series can be described thus: Proliferation of Int-2 cells pretreated with PCI. The series is classed as cell-based. The note with it: pretreatment 50 μg/mL of PCI, 7, 20 and 30 days; treatments 7, 8 and 5 days. The protocol:
The analysed cell lines were Capan-1, already described, and Int-2. This latter being a murine insulinoma cell line derived from transgenic mice developed in the lab of Dr. M. Frazier. The medium employed for the growth of both lines was DMEM+10%FBS and the culture techniques that were used were identical to those previously described. In the case of the Int-2 cell line, only proliferation tests were performed. They were carried out in the same way as that described in the case of Capan-1, with the unique difference that the number of cells that was put per well in the plate of 96 was 500 instead of 2,000.

The target of series [2] is T1, EGF receptor (Homo sapiens, UniProt P00533). The series can be described thus: Kinase activity (phosphorilation) of the EGF receptor, A431 cells. Format: cell-based. The arrangement: endogenous in cells; host or cells: A431 (squamous cancer cell line). The protocol: (§1) The material and protocol used have been those described by Donato, N. J. et al. (1989) J. Cell. Biochem., 41: 139-157.
(§2) 1.c. Wash the cells twice more with tempered PBS and add new serum-free medium. Immediately after, add PCI to the concentration which is going to be studied in the cultures to be treated and incubate for 10 min at 37° C.
(§3) 2.a. […] Incubate for 1 h in ice.
(§4) 3.a. Prepare the reaction buffer. Each sample requires 50μL.
(§5) 3.k. Dry the gel (for at least 3 h) and autoradiograph it for 10 min for the A431 cell line and 2-4 h for the Capan-1 cell line. Count the radiactivity of the filter using a beta counter.
The kinase activity in absence of PCI (basal) is taken as 100% and the values of kinase activity have been compared in various concentrations of PCI in relation to this basal activity.

The target of series [3] is T1, EGF receptor. Description: Kinase activity (phosphorilation) of the EGF receptor, Capan-1 cells. Format: cell-based. The arrangement: endogenous in cells; host or cells: Capan-1 (human pancreatic adenocarcinoma). The method, then:
as §1, §2, §3, §4, §5

The subject of series [4] is ribonuclease secreted by Capan-1. The series can be described thus: Ribonuclease secretion and glycosylation pattern (zymogram). Format: cell-based, human. The note with it: PCI 5 μg/mL, pre and postadhesion; DMEM + BMS 10%. An excerpt:
To verify whether the PCI when affecting cell growth may provoke metabolic changes too, we analysed the changes in a secreted protein, ribonuclease, in the human pancreatic adenocarcinoma cell line Capan-1. Apart from the mentioned material required for cell culture, this analysis was based on the detection of ribonuclease activity by means of the electrophoretic analysis in activity gels (zymograms) (Bravo, J. et al (1994) Anal Biochem., 219: 82-86).
With this aim in mind, the culture medium of the proliferation tests of Section 4.B.1 was taken. Thus, a culture medium of control cells was provided for cells treated with PCI from the beginning (preanchorage) and for cells treated once they had adhered to the culture surface (postanchorage). Given the fact that the FBS contains bovine ribonuclease which would interfere in our research, these cells grew in DMEM supplemented with BMS at 10%. The procedure was as follows: […]
At the moment of the analyses, the media were unfrozen in order to have an aliquot of each sample. The concentration of total protein was determined by means of the Bradford method (Bradford, M. M. (1976) Anal. Biochem., 72: 248-254). […]
The analysis of ribonuclease secretion was done with Capan-1. […] Using the electrophoretic analysis of ribonuclease activity, the pattern of glycosylation of this protein could be observed and a certain quantification could be made.

[5] abbreviates: basal, incubation with PCI 50 mg/mL, 10 min, 100% = absence of PCI.

For the substance “PCI: potato carboxypeptidase inhibitor, isoform IIa, obtained by recombinant DNA techniques in E. coli (SEQ ID NO.2) (EQHADPICNKPCKTHDDCSGAWFCQACWNSARTCGPYVG; disulfide 12-27, 18-34, 8-24)”, the “beta counts, β2-microglobuline probe” value stood at 2183 with β2-microglobuline (1 mg/mL PCI) and 6287 in the series with β2-microglobuline (10 mg/mL PCI). The “growth of pretreated cells cultured later in the absence of the protein compared to non-pretreated cells” value in series [1] is recorded as “approximately half”. Also, the “Kinase activity (%)” value is 126% in the series with EGF receptor [2] (1 ng/ml EGF + 1 mg/mL PCI); 108% with EGF receptor [2] (1 ng/ml EGF + 10 mg/mL PCI); 53% in the series with EGF receptor [2] (1 ng/ml EGF + 50 mg/mL PCI); 68% with EGF receptor [2] (basal, incubation with PCI 1 mg/mL, 10 min, 100% = absence of PCI); 78% and 61% and 80% and 77% with EGF receptor [2] (setting [5]); 29% with EGF receptor [2] (basal, incubation with PCI 100 mg/mL, 10 min, 100% = absence of PCI). For the same substance, the “Kinase activity (%)” value was 180% with EGF receptor [3] (5 ng/mL EGF + 1 mg/mL PCI); 170% in the series with EGF receptor [3] (5 ng/mL EGF + 10 mg/mL PCI); 120% with EGF receptor [3] (5 ng/mL EGF + 50 mg/mL PCI); 70% and 88% and 90% with EGF receptor [3] (setting [5]). Moreover, the “kinase activity of the receptor under EGF” value with EGF receptor [2] (highest dose of PCI, 50 μg/mL, with EGF) is “reduced to half the basal activity”. The “inhibition of the kinase activity induced by EGF” value in the series with EGF receptor [3] (PCI concentration of 50 μg/mL) came out at 50%. Moreover, the “secretion and glycosylation of ribonuclease compared to the control group” value in series [4] was “higher secretion of ribonuclease with a higher degree of glycosylation”.
